Results from PMC4720891.

Target: HA-Mdm2 (human) (UniProt Q00987)
Sequence (Q00987 whole entry): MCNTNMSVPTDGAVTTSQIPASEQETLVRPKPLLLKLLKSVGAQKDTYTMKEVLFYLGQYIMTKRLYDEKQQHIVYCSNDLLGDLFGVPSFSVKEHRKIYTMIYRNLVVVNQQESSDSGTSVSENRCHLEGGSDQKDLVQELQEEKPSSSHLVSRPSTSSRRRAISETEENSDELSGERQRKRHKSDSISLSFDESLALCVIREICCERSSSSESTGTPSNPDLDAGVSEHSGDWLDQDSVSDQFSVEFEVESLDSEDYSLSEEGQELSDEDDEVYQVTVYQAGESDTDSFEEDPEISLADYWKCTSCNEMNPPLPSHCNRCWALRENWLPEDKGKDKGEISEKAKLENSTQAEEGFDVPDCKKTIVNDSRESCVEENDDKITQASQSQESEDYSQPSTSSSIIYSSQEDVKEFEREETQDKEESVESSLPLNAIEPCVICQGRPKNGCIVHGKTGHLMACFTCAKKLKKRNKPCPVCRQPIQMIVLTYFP

FRET (HTRF) signal of MdmX-stimulated Mdm2 autoubiquitination in vitro, against the baseline without MdmX; rises with MdmX concentration and with reaction time: 8 fold
B1: FLAG-MdmX (natural protein)
chain: MTSFSTSAQCSTSDSACRISPGQINQVRPKLPLLKILHAAGAQGEMFTVKEVMHYLGQYIMVKQLYDQQEQHMVYCGGDLLGELLGRQSFSVKDPSPLYDMLRKNLVTLATATTDAAQTLALAQDHSMDIPSQDQLKQSAEESSTSRKRTTEDDIPTLPTSEHKCIHSREDEDLIENLAQDETSRLDLGFEEWDVAGLPWWFLGNLRSNYTPRSNGSTDLQTNQDVGTAIVSDTTDDLWFLNESVSEQLGVGIKVEAADTEQTSEEVGKVSDKKVIEVGKNDDLEDSKSLSDDTDVEVTSEDEWQCTECKKFNSPSKRYCFRCWALRKDWYSDCSKLTHSLSTSDITAIPEKENEGNDVPDCRRTISAPVVRPKDAYIKKENSKLFDPCNSVEFLDLAHSSESQETISSMGEQLDNLSEQRTDTENMEDCQNLLKPCSLCEKRPRDGNIIHGRTGHLVTCFHCARRLKKAGASCPICKKEIQLVIKVFIA
